For eight molecules, Km, kcat and kcat/Km results are on record in paper PMC10407285 (The Journal of Biological Chemistry, 2023).

One data set relates to N=C(N)NCCC[C@H](N)C(=O)O. As to the kind of experiment: purified protein. The settings on record: 50 mM Hepes pH 7.7, 100 mM NaCl, 1 mM DTT, 26 °C, pyruvoyl-dependent decarboxylation.
Data set [1] deals with T1, Ca. Diapherotrites archaeon SpeD homolog (PIN84875) (Candidatus Diapherotrites archaeon CG11_big_fil_rev_8_21_14_0_20_37_9, UniProt A0A2G9N1A6).
T1 construct: self-processed pyruvoyl enzyme
T1 sequence (A0A2G9N1A6 1-75 limits assumed): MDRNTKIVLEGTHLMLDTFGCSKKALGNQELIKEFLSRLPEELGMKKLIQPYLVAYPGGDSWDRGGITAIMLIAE
T1 sequence (A0A2G9N1A6 76-142 limits assumed): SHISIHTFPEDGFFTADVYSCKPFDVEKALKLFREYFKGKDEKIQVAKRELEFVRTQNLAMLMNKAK
As to the kind of experiment: coupled CO2-release assay (NADH, A340), Michaelis-Menten fit. In kind it is biochemical. The settings on record: 50 mM Hepes pH 7.7, 100 mM NaCl, 1 mM DTT, 26 °C; pyruvoyl-dependent decarboxylation. From the text: Diapherotrites archaeon SpeD homolog (PIN84875)

In data set [2] the target is T2, Ca. Woesearchaeota archaeon SpeD homolog (PIN80235) (Candidatus Woesearchaeota archaeon CG10_big_fil_rev_8_21_14_0_10_34_8, UniProt A0A2G9MN15).
T2 construct: self-processed pyruvoyl enzyme
T2 sequence (A0A2G9MN15 1-79 limits assumed): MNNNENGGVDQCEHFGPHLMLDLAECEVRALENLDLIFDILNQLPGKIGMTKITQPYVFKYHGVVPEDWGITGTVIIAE
T2 sequence (A0A2G9MN15 80-150 limits assumed): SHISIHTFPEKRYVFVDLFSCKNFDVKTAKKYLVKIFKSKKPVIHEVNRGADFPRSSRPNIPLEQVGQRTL
Described as above. In kind it is biochemical. The conditions noted are these: 50 mM Hepes pH 7.7, 100 mM NaCl, 1 mM DTT, 26 °C; pyruvoyl-dependent decarboxylation. From the text: Woesearchaeota archaeon SpeD homolog (PIN80235)

The target in data set [3] is T3, Ca. Marinimicrobia bacterium SpeD (PIS27863) (Fidelibacterota bacterium CG08_land_8_20_14_0_20_45_22, UniProt A0A2H0XSF6).
T3 construct: self-processed pyruvoyl enzyme
T3 sequence (A0A2H0XSF6 1-72 limits assumed): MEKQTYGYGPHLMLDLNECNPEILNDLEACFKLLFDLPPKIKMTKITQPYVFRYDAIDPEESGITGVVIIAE
T3 sequence (A0A2H0XSF6 73-131 limits assumed): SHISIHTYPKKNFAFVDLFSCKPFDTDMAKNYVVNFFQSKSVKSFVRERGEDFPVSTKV
The data set is described as above. In kind it is biochemical, Candidatus Fidelibacterota bacterium. The settings on record: 50 mM Hepes pH 7.7, 100 mM NaCl, 1 mM DTT, 26 °C; pyruvoyl-dependent decarboxylation. From the text:
Marinimicrobia bacterium SpeD (PIS27863)

Data set [4] concerns Ca. Atribacteria bacterium SpeD2 (PIU25646). The settings on record: 50 mM Hepes pH 7.7, 100 mM NaCl, 1 mM DTT, 26 °C; pyruvoyl-dependent decarboxylation.
Data set [5] relates to Ca. Peribacteria bacterium SpeD (OGJ64158). The settings on record: 50 mM Hepes pH 7.7, 100 mM NaCl, 1 mM DTT, 26 °C; pyruvoyl-dependent decarboxylation.
For data set [6], the system named is Ca. Sumerlaeota bacterium SpeD2 (MBN1518199). The settings on record: 50 mM Hepes pH 7.7, 100 mM NaCl, 1 mM DTT, 26 °C; pyruvoyl-dependent decarboxylation.
Data set [7] addresses T4, Ca. Electrothrix aarhusiensis SpeD homolog (RWX43081) (Candidatus Electrothrix aarhusensis, UniProt A0A3S3QFL2).
T4 construct: gene H206_03171
The settings on record: 50 mM Hepes pH 7.7, 100 mM NaCl, 1 mM DTT, 26 °C; pyruvoyl-dependent decarboxylation.

Substrate in the data set “purified protein”: NCCC[C@H](N)C(=O)O
As to the kind of experiment: purified protein. The settings on record: 50 mM Hepes pH 7.7, 100 mM NaCl, 1 mM DTT, 26 °C, pyruvoyl-dependent decarboxylation.

Substrate in data set [8]: N=C(N)NCCC[C@H](N)C(=O)O
Briefly: coupled CO2-release assay (NADH, A340), Michaelis-Menten fit. In kind it is biochemical, Capsulimonas corticalis. The settings on record: 50 mM Hepes pH 7.7, 100 mM NaCl, 1 mM DTT, 26 °C, pyruvoyl-dependent decarboxylation.

Substrate in data set [9]: N=C(N)NCCC[C@H](N)C(=O)O
The data set is described as above. In kind it is biochemical, Tribonema minus. The settings on record: 50 mM Hepes pH 7.7, 100 mM NaCl, 1 mM DTT, 26 °C, pyruvoyl-dependent decarboxylation.

T4 sequence (A0A3S3QFL2 entry or part of it): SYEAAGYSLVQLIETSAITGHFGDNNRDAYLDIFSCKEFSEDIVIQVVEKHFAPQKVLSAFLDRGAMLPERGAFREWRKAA
T4 sequence (A0A3S3QFL2 entry or part of it): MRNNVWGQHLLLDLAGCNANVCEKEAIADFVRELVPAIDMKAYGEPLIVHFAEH

The term Km denotes the substrate concentration at which the rate is half of its maximum. For orientation: kcat means the maximal rate divided by the concentration of active sites. What is called kcat/Km is the second-order rate constant that governs catalysis at low substrate concentration. Regarding “Nannochloropsis gaditana SpeD homolog (XP_005856029) (Microchloropsis gaditana)”, in the data set with N=C(N)NCCC[C@H](N)C(=O)O, the Km amounted to 1.3 ± 0.10 mM, the catalytic constant (kcat) came out at 0.049 ± 0.003 s⁻¹ and the kcat/Km is 39 ± 0.3 M⁻¹ s⁻¹.
Take `N=C(N)NCCC[C@H](N)C(=O)O` [L-arginine]: the Km in data set [1] was 95 ± 19 µM; in [2] it was 350 ± 24 µM; in [3], 760 ± 50 µM.
As for `NCCC[C@H](N)C(=O)O` [L-ornithine], the Km worked out at 330 ± 30 µM in [4], 270 ± 20 µM in [5], 21 ± 1.3 µM in data set [6] and 89 ± 13 µM in data set [7].
Consider “Ca. Poseidonales archaeon SpeD homolog (DAC51064) (Candidatus Poseidoniales archaeon)”, for which, in the data set on N=C(N)NCCC[C@H](N)C(=O)O, the Km worked out at 2.8 ± 0.50 mM, the turnover number (kcat) turned out to be 0.48 ± 0.042 s⁻¹ and the kcat/Km is 180 ± 19 M⁻¹ s⁻¹.

B1: Ca. Velamenicoccus archaeovorus LiM SpeD homolog (WP_128700171) (Candidatus Velamenicoccus archaeovorus) (protein)
chain: MPKNVTMPAGSFGLEVVLDLYGCDPQTIRSAKKLSEFTTKLCKLLKMKKYGKTLLPHFGYDKAHTAGYSMLQFIETSSITGHFSELWNSAYINIFSCREFDAHKAADFTVKFFGARKATRRVLLRK
B1: in “purified protein”, the Km is 0.073 ± 0.0032 mM, the kcat was 0.008 s⁻¹ and the kcat/Km amounted to 113 M⁻¹ s⁻¹.

B2: Capsulimonas corticalis SpeD homolog (WP_119321511) (Capsulimonas corticalis) (protein)
chain: MKNHTTYGAHLTLRIANIERRHALQGPHGVSDLLVDLIDRIGMRILAGPLTAEETGDPERRGWSSVAILYESHCAIHTYPELGEAFLDVFSCKTFPIAAITTLLTERFGEFAIVEQSLTDRGIHWGPNVEKELASWVLTRSEK
notes: self-processed pyruvoyl enzyme
Turning to B2, in data set [8], the Km was 0.37 ± 0.050 mM, the kcat is 0.08 ± 0.003 s⁻¹ and the kcat/Km came to 220 ± 36 M⁻¹ s⁻¹.

B3: Methanospirillum hungatei JF-1 SpeD2 (WP_011448617) (Methanospirillum hungatei JF-1) (protein)
chain: MIDTLVPTREGIATAPAKSDQEIMEEFKSRNAWGLYTSVDLKNCNPETIRDAGKIREFVIQLCDLIKMKRFGEPQIINFGPCERVAGYSMTQLIETSLIGAHFANETNAAYIDIFSCKEYAPQLTAEFCREFFGADKVTVHIAFRD
Consider B3, for which, in the data set “purified protein”, the Km is 0.23 ± 0.018 mM, the kcat worked out at 0.05 s⁻¹ and the kcat/Km was 220 M⁻¹ s⁻¹.

B4: Tribonema minus SpeD homolog (KAG5182568) (Tribonema minus) (protein)
chain: MRVPIQRTTVPQSSPLIRAHGSHIMLDFTEWWMPPEEGAEAVMELVRAALREEGVREVHHKAVVLGTRGESPPGFTAVVLIDESHVTAHCYADRGWLALDVFTCGGASTARVAAAIEAGVRRLSPRAVLQQRASAPRFVHRVD
notes: as for B2
For B4, in data set [9], the Michaelis constant (Km) is on record as 0.72 ± 0.11 mM, the kcat was determined as 0.08 ± 0.004 s⁻¹ and the specificity constant (kcat/Km) amounted to 110 ± 10 M⁻¹ s⁻¹.
